Earlier results in US11040110B2, “Polypeptide complex comprising non-peptidyl polymer having three functional ends” (HANMI SCIENCE CO., LTD., priority 2008, dated 2021).

Conditions: Osborn et al. 2002

interferon alpha
serum half-life: 5 h
